Experimental data from patent US20120093805A1 (Kyowa Kirin, published 2012).

T1: human sugar chain-deficient CD27 expressed on Lec8 cells (human, UniProt P26842 20-260, O-linked sugar chains to which galactose is not bound, from expression in Lec8 cells)
T1 construct: CD27/Lec8-4 and CD27/Lec8-M19 are two clones that carry the same protein; also called CD27/Lec8-4; CD27/Lec8-M19
T1 sequence: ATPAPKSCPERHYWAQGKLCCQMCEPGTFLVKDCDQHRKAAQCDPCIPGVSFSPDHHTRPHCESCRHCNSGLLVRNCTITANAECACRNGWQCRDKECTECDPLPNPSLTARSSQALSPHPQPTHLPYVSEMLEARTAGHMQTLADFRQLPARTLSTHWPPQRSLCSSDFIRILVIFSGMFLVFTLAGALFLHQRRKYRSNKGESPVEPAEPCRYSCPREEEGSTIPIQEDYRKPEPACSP

B1: anti-sugar chain-deficient CD27 chimeric antibody chimeric KM4030 (antibody, human IgG1, V domains shown)
VH: EVQLVESGGGLVQPGRSLKLSCVASGFTFNNYWMTWIRQAPGKGLEWIASITNSGGSTYYPDSVKGRFTISRDNAKGTLYLQMNSLRSEDTATYYCTRDVNTYYGYNALFDYWGQGVMVTVSS
VL: DIQMTQSPSVLSASVGDRVTLNCKASQNINEYLNWYQQKLGEAPKLLIYNTNNLQTGIPSRFSGSGSGTDFTLTISSLQPEDFAAYFCFQHNSWPYTFGAGTKLELK
notes: made in FUT8 knockout CHO cells, no core fucose; also called anti-sugar chain-deficient CD27 chimeric antibody KM4030
B2: anti-sugar chain-deficient CD27 humanized antibody HV5LV0 (antibody, human IgG1, V domains shown)
VH: EVQLVESGGGLVKPGRSLRLSCAASGFTFNNYWMTWIRQAPGKGLEWIASITNSGGSTYYPDSVKGRFTISRDNAKGSLYLQMNSLRAEDTAVYYCTRDVNTYYGYNALFDYWGLGTLVTVSS
VL: DIQMTQSPSSLSASVGDRVTITCKASQNINEYLNWYQQKPGKAPKLLIYNTNNLQTGVPSRFSGSGSGTDFTLTISSLQPEDFATYYCFQHNSWPYTFGQGTKLEIK
B3: anti-sugar chain-deficient CD27 humanized antibody HV0LV0 (antibody, human IgG1, V domains shown)
VH: EVQLVESGGGLVKPGRSLRLSCAASGFTFSNYWMTWIRQAPGKGLEWVSSITNSGGSTYYPDSVKGRFTISRDNAKNSLYLQMNSLRAEDTAVYYCARDVNTYYGYNALFDYWGLGTLVTVSS
VL: DIQMTQSPSSLSASVGDRVTITCKASQNINEYLNWYQQKPGKAPKLLIYNTNNLQTGVPSRFSGSGSGTDFTLTISSLQPEDFATYYCFQHNSWPYTFGQGTKLEIK
B4: anti-sugar chain-deficient CD27 humanized antibody HV7LV0 (antibody, human IgG1, V domains shown)
VH: EVQLVESGGGLVKPGRSLRLSCAASGFTFNNYWMTWIRQAPGKGLEWIASITNSGGSTYYPDSVKGRFTISRDNAKGSLYLQMNSLRAEDTATYYCTRDVNTYYGYNALFDYWGLGVLVTVSS
VL: DIQMTQSPSSLSASVGDRVTITCKASQNINEYLNWYQQKPGKAPKLLIYNTNNLQTGVPSRFSGSGSGTDFTLTISSLQPEDFATYYCFQHNSWPYTFGQGTKLEIK
B5: anti-sugar chain-deficient CD27 chimeric antibody chimeric KM4031 (antibody, human IgG1, V domains shown)
VH: EVQLVESGGGLVEPGRSMKLSCAASGFTFSDYGMAWVRQAPTKGLEWVATITYDGSIYYRDSVKGRFTISRDNAKSTLYLQMNSLRSEDTATYYCTRDPGLYYFDFWGQGVMVTVSS
VL: DIVMTQSPSSLAVSAGETVTLNCQSSQSLLYSGNQKNYLAWYQQKPGQSPKLLIYWASTRQSGVPDRFIGSGSGTDFTLTISSVQAEDLAIYYCQQYYNTPRTFGGGTKLELK
notes: made in FUT8 knockout CHO cells, no core fucose; also called chimeric KM403I

How the values were obtained:
[1] = biological target: T1, human sugar chain-deficient CD27 …; assay: flow cytometry (FCM) on CD27/Lec8-M19 cells [A]
Description: Reaction specificity of the anti-sugar chain-deficient CD27 humanized antibody was measured in the same manner as in Example 7(2). Regarding the cell lines, the CD27/DG44-4 cell and CD27/Lec8-M19 cell having almost the same antigen expression quantity, prepared by the same method of Example 2, were used as assaying cells.

[2] = biological target: T1, human sugar chain-deficient CD27 …; assay: flow cytometry (FCM) on CD27/Lec8-4 cells [A) (a]
Description: The CD27/DG44-4, CD27/Lec8-4 and Lec8 cells constructed in the same manner as in Example 2 were used as assay cells. The CD27/DG44-4 subcultured in an HT-medium supplemented with 500 μg/mL of G418, and the CD27/Lec8-4 subcultured in an HT-medium supplemented with 50 nmol/L of MTX and 500 μg/mL of G418 were peeled off using a 0.02% EDTA solution, and then washed with PBS.
After the reaction was complete, centrifugation was carried out twice with PBS, and ALEXA Fluoro 488-labeled anti-human immunoglobulin G(H+L), ALEXA Fluoro 488-labeled anti-mouse immunoglobulin G(H+L) or ALEXA Fluoro 488-labeled anti-human immunoglobulin M(μ) as a secondary antibody was added at a concentration of 50 μL/well, followed by reaction at ice temperature under shading for 30 minutes.
Again, centrifugation was repeated twice using PBS, and the cells were washed and suspended in 500 μL of 1% BSA-PBS. The fluorescence of 510 to 530 nm excited with a 488 nm argon laser was measured by a flow cytometer (manufactured by Beckman Coulter, Cytomics FC500 MPL).

[3] = biological target: T2, Lec8-produced CD27-Fc (human sugar chain-deficient CD27-Fc) (human, O-linked sugar chains to which galactose is not bound (Tn antigen), from production in Lec8 cells); assay: SPR, BIACORE T100, as in Example 7(1): Lec8-derived CD27-Fc on CM5 chip, antibody as analyte, bivalent analyte model
T2 construct: also called Lec8-derived CD27-Fc
Description: In order to analyze binding activity of anti-sugar chain-deficient CD27 humanized antibody to human sugar chain-deficient CD27 reaction kinetically, it was measured in the same manner as in Example 7(1) using BIACORE T100 (manufactured by BIACORE).

[4] = biological target: T2, Lec8-produced CD27-Fc (human sugar …); assay: SPR, Biacore T100; Lec8-derived CD27-Fc amine-coupled to CM5 chip, antibody as analyte, single-cycle kinetics, bivalent analyte model
Description: In order to kinetically analyze the binding activity of the anti-sugar chain-deficient CD27 chimeric antibodies chimeric KM4026, chimeric KM4028, and chimeric KM4030 to the human sugar chain-deficient CD27-Fc, the binding activity was measured by surface plasmon resonance method (SPR method). All of the following manipulations were carried out using Biacore T100 (manufactured by GE Healthcare Bio-Sciences).
The Lec8-derived CD27-Fc obtained in Example 1(7) was immobilized on a CM5 sensor chip (manufactured by GE Healthcare Bio-Sciences) by amine coupling. Assay samples (chimeric KM4026, chimeric KM4028, chimeric KM4030 and chimeric KM4031), which were serially 3-fold diluted from 9 μg/mL to give 5 different concentrations, were sequentially and continuously added to the CD27-Fc-immobilized chip in order of increasing concentrations, in accordance with an automated program (Single Kinetix), followed by measurement.
Using the analysis software, Biacore T100 Evaluation software (manufactured by Biacore) installed on the apparatus, the analysis was carried out using Bivalent Analyte Model to calculate thereby an association rate constant ka and a dissociation rate constant kd of each antibody for the human sugar chain-deficient CD27-Fc.

[5] = biological target: T3, sugar chain-deficient cynomolgus CD27 (C-terminal His tag) expressed on Lec8 cells (cynomolgus); assay: flow cytometry (FCM) on cynomolgus CD27/Lec8 cells (Example 11(5)) [A]
T3 construct: whole, on cells; also called cynomolgus CD27/Lec8 cell; sugar chain-deficient cynomolgus CD27 cell
Description: Binding activity of the anti-sugar chain-deficient CD27 humanized antibodies HV0LV0, HV5LV0 and HV7LV0 for cynomolgus CD27 expression cells was measured by a fluorescent cell staining method (cytometer analysis) in the same manner as in Example 9(1). The cynomolgus CD27/DG44 cell and cynomolgus CD27/Lec8 cell prepared in Example 8 were used as the cynomolgus CD27 expression cells.

| Binder | Kd [4] | koff [4] | kon [4] | EC50 (read off the curve) [5] | other results |
| --- | --- | --- | --- | --- | --- |
| B1 | 1.07 nM | 0.00034 s⁻¹ | 290000 M⁻¹ s⁻¹ | – | EC50 (read off the curve) [1]: ~0.2 µg/mL; EC50 (read off the curve) [2]: ~0.1 µg/mL; Kd [3]: 1.1 nM; koff [3]: 0.00082 s⁻¹; kon [3]: 740000 M⁻¹ s⁻¹ |
| B2 | – | – | – | ~0.2 µg/mL | – |
| B3 | – | – | – | ~0.2 µg/mL | – |
| B4 | – | – | – | ~0.2 µg/mL | – |
| B5 | 0.51 nM | 0.0002 s⁻¹ | 400000 M⁻¹ s⁻¹ | – | – |
